Test: yeast display, Sf9 membrane polyspecificity reagent, FACS + sequencing; frameworks hold sequencing errors
Procedure, shortened: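 Galactose induction of a Saccharomyces cerevisiae BJ5465 synthetic nanobody display library ran 36–48 hours. The cells were then stained for 1 hour at 4 °C with 10% biotinylated, detergent-solubilized Sf9 membrane reagent, pulled down on streptavidin microbeads and FACS-sorted into low and high (top ~1%) gates on expression and reagent-binding fluorescence. Labels for polyreactivity follow the gate of origin.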

Sequence | polyreactivity (PSR sort gate)
QVQLVESGGGLVQAGGSLRLSCAASGRTFYRKAMGWYRQAPGKERELVAAITYGGGSTYYADSVKGRFTISRDNAKNTVYLQMNSLKPEDTAVYYCNALRNVRTGRTQVLSYYWGQGTQVTVSS | high polyreactivity
QVQLVESGGGLVQAGGSLRLSCAASGRTFYRNAMGWYRQAPGKERELFATINSGGSTHYADSVKGRFTISRDNAKNTVYLQMTSLKPEDNAVYYCAARSQSYRGSLSYYWGQGTQVTVSS | high polyreactivity
QVQLVESGGGLVQAGGSLRLSCAASGRTFYRNAMGWYRQAPGKERELVAAISQRGGRTYYADSVKGRFTISRDNAKNTVYLQMNSLKPEDTAVYYCAASPIYPVYRRHGYWGQGTQVTVSS | high polyreactivity
QVQLVESGGGLVQAGGSLRLSCAASGRTFYRNAMGWYRQAPGKERELVAAISRGDSTYYADSVKGRFTNSRDNAKNTVYLQMNILIPEDTAVYYCAKRARRIGDVNMGSWGQGTQVTVSS | low polyreactivity
QVQLVESGGGLVQAGGSLRLSCAASGRTFYRNPMGWYRQAPAKERELVAANSWSGGRTFYADSVKGRFTISRDNAKNTVYLHMNSMKPEDTAVYYCAKSYTTPGYYRYDYWGQGTQVTVSS | high polyreactivity
QVQLVESGGGLVQAGGSLRLSCAASGRTFYRSAMGWYRQAPGKERELVAAISSSGGRTYYADSVKGRFTISRDYAKNTVYLQMNSLKPEDTAVYYCNAAPSWSTSFDSWGQGTQVTVSS | high polyreactivity
QVQLVESGGGLVQAGGSLRLSCAASGRTFYRYAMGWYRQAPGKERELVAAISSGGSTNYADSVKGRFTISRDNAKNTVYLQMNSLKPEDTAVYYCAAETRLHRQDYDYWGQGTQVTVSS | low polyreactivity
QVQLVESGGGLVQAGGSLRLSCAASGRTFYRYAMGWYRQAPGKERELVAAISTSGSTTYADSVKGRFTISRDNAKNTVYLQMISLKPEDTAVYYCNAVYYYRPDWRQSNLSQYGYWGQGTQVTVSS | high polyreactivity
QVQLVESGGGLVQAGGSLRLSCAASGRTFYRYAMGWYRQAPGKERELVATISSSGRTYYADSVKGRFTISRDNAKNTVYLQMNSLKPEDTAVYYCRFTIKHGSWGQGTQVTVSS | high polyreactivity
QVQLVESGGGLVQAGGSLRLSCAASGRTFYRYAMGWYRQAPWKERELVAAITKRGSGTYYADSVKGRFTISRDNAKNTVYLQMNSLKPEDTAVYYCATDGYIRPSRPAPTQPTFNYWGQGSQVTVSS | high polyreactivity
QVQLVESGGGLVQAGGSLRLSCAASGRTFYRYVMGWYRQAPGKERELVAAITPGGSTYADSVKGRFTISRDNAKNTVYLQMNSLKPEDTAVYYCNAKVGAYLNYGYWGQGTQVTVSS | low polyreactivity
QVQLVESGGGLVQAGGSLRLSCAASGRTFYSNVMGWYIQAPGQERELVASISRGGNTYYADSVKGRFTISRDNAKIPFYLQMNSLKPEDTAVYYCAARQYHSRDFDYWGQGTQVTVSS | low polyreactivity
QVQLVESGGGLVQAGGSLRLSCAASGRTFYSYAMGWYRPAPGKERELVAAINTSGGRTHYADSVKGRFTISRDNGKNTVYLQMNSLKPEDTAVYYCAAEVFRTRTWEYYYWGQGTQVTVSS | high polyreactivity
QVQLVESGGGLVQAGGSLRLSCAASGRTFYSYAMGWYRQAPGKERELVAAINTSGGRTHYADSVKGRFTISRDNAKNTVYLQMNSLKPEDTAVYYCAAEVFRTRTWEYYYWGQGTQVTVSS | high polyreactivity
QVQLVESGGGLVQAGGSLRLSCAASGRTFYSYAMGWYRQAPGKERELVAGITWSGTSTYYADSVKGRFTISRDNAKNTVYLQMNSLKPEDTAVYYCAADSIQYTARPYDYWGQGTQVTVSS | low polyreactivity
QVQLVESGGGLVQAGGSLRLSCAASGRTFYSYSMGWYRQEPGQERELVALITWSGGTYYADSVKGRFTISRDNANNTVYLLMNSLKPEDTAVYYCNKYRPYGRIFHRAYGRDYWGQGTQVTVSS | high polyreactivity
QVQLVESGGGLVQAGGSLRLSCAASGRTFYSYTMGWYRQAPGKDRELVAAITRSGGRTYYADSVKGRFTISRDNAKNTVYLQMNSLKPDDTAVYYCAKGWVSYWRYKNEYWGQGTQVTVSS | high polyreactivity
QVQLVESGGGLVQAGGSLRLSCAASGRTFYSYTMGWYRQAPGKERELVAAINRGGSTYYADSVKGRFTISRDNAKNTVYLQMNSLKPEDTAVYYCNVDWKVYGAPDYRIAWKYDYWGQGTQVTVSS | low polyreactivity
QVQLVESGGGLVQAGGSLRLSCAASGRTFYSYVMGWYRQAPGKERELVAAINKTGGGTYYADSVKGRFTISRDNAKNTVYLQMNSLKPEDTAVYYCAAETGTGETRYYRYWDYYYWGQGTQVTVSS | high polyreactivity
QVQLVESGGGLVQAGGSLRLSCAASGRTFYTNALGWYRQAPGKERELVAVISRGGTTYYADSVKGRFTISRDNAKNTVYLQMNSLKPEDTAVYYCAKQRPSGDSSSQMGSWGQGTQVTVSS | low polyreactivity
QVQLVESGGGLVQAGGSLRLSCAASGRTFYTNAMGWYRQAPGKERELVAAITRGGSTYYADSVKGRFTIPRDNAKNTVYLQMYSLKPEDTAVYYCAAAYASSWRQRVTSEKGYYWGQGTQVTVSS | high polyreactivity
QVQLVESGGGLVQAGGSLRLSCAASGRTFYTNAMGWYRQAPGKERELVAVISRGGTTYYADSVKGRFTISRDNAKNTVYLQMNSLKPEDTAVYYCAKQRPSGESSSQMGSWGQGTQVTVSS | low polyreactivity

Sequence | polyreactivity (PSR sort gate)
QVQLVESGGGLVQAGGSLRLSCAASGRTFYTYAMGWYRPAPGKERELVASISSGGNTNYADSVKGRFTISRDNAKNTVYLQMNSLKPEDTAVYYCAASYLKRRGYWGQGTQVTVSS | low polyreactivity
QVQLVESGGGLVQAGGSLRLSCAASGRTFYTYAMGWYRQAPGKDREFVAVISGRGARTYYADSVKGRFTISRDNAKNTVYLQMNSLKPEDTAVYYCAAVPPRKDYQHMDYWGQGTQVTVSS | low polyreactivity
QVQLVESGGGLVQAGGSLRLSCAASGRTFYTYAMGWYRQAPGKERELVAAITRRGGSTFYADSVKGRFTISRDNAKNTVYLQMNSLKPEDTAVYYCAARSTVGPQYGVRFNYWGQGTQVTVSS | high polyreactivity
QVQLVESGGGLVQAGGSLRLSCAASGRTFYTYAMGWYRQAPGNERELVATISSGGGRTYYADSVKGRFTISPDNAKKTVYLQRNSLNPEDTAVYYCAADKWENRYHAVSDTRPRDYWGQGTQVTVSS | low polyreactivity
QVQLVESGGGLVQAGGSLRLSCAASGRTFYVNAMGWYRQAPGKERELVARISSSGITYYADSVKGRFTISRDNAKNSVSLQMNSLKPEDTAVYYCAAGPWFYYWGLGTQVTVSS | low polyreactivity
QVQLVESGGGLVQAGGSLRLSCAASGRTFYVNAMGWYRQAPGKERELVARITSGGSTYYADSVKGRFTISRDKAKNTVYLQMNSVKPEDTAVYYCAADYVSLSVFSYWAWYDYWGQGTQVTVSS | low polyreactivity
QVQLVESGGGLVQAGGSLRLSCAASGRTFYVNDMGWYRQAPGKERELVAAISYRGGSTYYADSVKGRFTISRDNAKNTVYLQMNSLKPEDTAVYYCAAELTYRYRFYYLYSMYYWGQGTQVTVSS | low polyreactivity
QVQLVESGGGLVQAGGSLRLSCAASGRTFYVNTMGWYRPAPGKEREFVAAITWRDGSTYYADSVKGRFTISRDNAKNTVYPQMNSLKPEDTAVYYCAARNSHDGYYDEYYYWGQGTQVTVSS | low polyreactivity
QVQLVESGGGLVQAGGSLRLSCAASGRTFYVYAMGWYRQAPGKERELVAAIDFSSTSTYADSVKGRFTISRDNAKNTVYLQMNSLKPEDTAVYYCNVDPDLGGFDYWGQGTQVTVSS | low polyreactivity
QVQLVESGGGLVQAGGSLRLSCAASGRTFYVYAMGWYRQAPGKERELVAAISQDDGGTYYADSVKGRFTISRDNAKNTVYLQMNSLKPEDTAVYYCAAKEWRYGYDYGYWGQGTQVTVSS | low polyreactivity
QVQLVESGGGLVQAGGSLRLSCAASGRTFYVYDMGWYRQAPGKERELVAVISSSGSTNYADSVKGRFTISRDNAKNTVYLQMNSLKPEDTAVYYCNRRRWYFFSLDYWGQGTQVTVSS | high polyreactivity
QVQLVESGGGLVQAGGSLRLSCAASGRTFYVYVMGWYRQAPGKEREFVAAINYGSTYYADSVKGRFTISRDNAKNTVYLQMNSLIPEDTAVYYLGQGTQVTVSS | low polyreactivity
QVQLVESGGGLVQAGGSLRLSCAASGRTFYWYAMGWYRQAPGKERELVAGISSGGGTYYADSVKGRFTISRDNAKNTVYLQMNSLKPEDTAVYYCAAAWENIWVWQEYIEYDYWGQGTQVTVSS | low polyreactivity
QVQLVESGGGLVQAGGSLRLSCAASGRTFYWYTMGWYRQAPGKERELVAAISTRGVRTYYADSVKGRFTISRDNAKNTVYLQMNSLKPEDTAVYYGNDEYNPPYYTSHDDSDYWGQGTHVTVSS | low polyreactivity
QVQLVESGGGLVQAGGSLRLSCAASGRTFYYNAMGWSRQAPGKEREFVARITRSGTNTYYADSVKGRFTISRDNAKNTVYLQMNSLKPEDTAVYYCARRGTSSYRRYWLDSASNMDYWGQGTQVTVSS | high polyreactivity
QVQLVESGGGLVQAGGSLRLSCAASGRTFYYNAMGWYRQAPGKERELVAAISWSGGRTYYADSVKGRFTISRDNAKNTVYLQMNSLKPEDTAVYYCAATGFYSSHYHLDYWGQGTQVTVSS | high polyreactivity
QVQLVESGGGLVQAGGSLRLSCAASGRTFYYNAMGWYRQAPGKERELVAAITSAGSTNYADSVKGRFTISRDNAKNTVYLQMNSLKPEDTAVYYCAARYFYRSAWGTFVKNDSWGQGTQVTVSS | high polyreactivity
QVQLVESGGGLVQAGGSLRLSCAASGRTFYYNGMGWYRQAPGKERELVAAITSGGTTSYADSVKGRFTISRDNAKNTVYLQRNSLKPEDTAVYYCNADYWAVNYDYWGQATQVTVSS | low polyreactivity
QVQLVESGGGLVQAGGSLRLSCAASGRTFYYNTMGWYRQAPGKERELVAAITSRGSTYADSVKGRFTISRDNAKNTVYLQMNSLKPEDTAVYYCAAVWRYGSWYSGRLYEYWGQGTQVTVSS | high polyreactivity
QVQLVESGGGLVQAGGSLRLSCAASGRTFYYNTMGWYRQAPGKERELVASITSGSSTYYADSVKGRFTISRDNAKNTVYLQMNSLKPEDTAVYYCAVYRRYSVKYHYGYWGQGTQVTVSS | high polyreactivity
QVQLVESGGGLVQAGGSLRLSCAASGRTFYYNTMGWYRQAPWKEWELVAAISWRTGSTYYADSVKGRFSISRDNAKNTVYLQMKSLKPEDTAVYYCAAVLFGYPRTIGTWYDRYYYWGQGTQVTVSS | high polyreactivity
